Data on 15 sequences can be found in the Immune Epitope Database (IEDB).

Test [1] concerns the target HLA-A*31:01. Put plainly: IEDB peptide-MHC binding, purified MHC/competitive/fluorescence; filed as Kd, often an IC50 or EC50 that approximates it; ≥ and ≤ were set here for values at or beyond the usual limits of such assays.
The target in test [2] is HLA-A*03:01. Put plainly: IEDB peptide-MHC binding, purified MHC/direct/fluorescence; filed as Kd, often an IC50 or EC50 that approximates it; ≥ and ≤ were set here for values at or beyond the usual limits of such assays.
Test [3] has as its target HLA-B*35:01. Described as above.
For test [4], the target named is HLA-A*69:01. The description is as above.
In test [5] the target is HLA-B*58:01. The test is described as above.
Test [6] deals with HLA-B*08:01. The description is as above.
Test [7] has as its target HLA-B*07:02. The test is described as above.
Test [8] deals with HLA-A*31:01. The test is described as above.
For test [9], the target named is HLA-B*40:01. Described as above.
Test [10] concerns the target HLA-B*27:05. The test is described as above.
Test [11] concerns the target HLA-A*26:01. The test is described as above.
The target of test [12] is HLA-A*11:01. The description is as above.
Test [13] has as its target HLA-A*02:01. Described as above.
Test [14] addresses HLA-B*39:01. Described as above. The note with it: source organism: Giardia lamblia ATCC 50803.
The target of test [15] is HLA-B*15:01. Described as above.
In test [16] the target is HLA-A*01:01. Described as above.
For test [17], the target named is HLA-B*44:02. Described as above.
Test [18] has as its target HLA-A*02:06. Put plainly: IEDB peptide-MHC binding, purified MHC/competitive/radioactivity; filed as Kd, often an IC50 or EC50 that approximates it; ≥ and ≤ were set here for values at or beyond the usual limits of such assays. The note with it: source organism: Dengue virus 1 Brazil/97-11/1997.
The target in test [19] is HLA-A*02:01. The test is described as above.
For test [20], the target named is HLA-A*02:17. Described as above.
Test [21] concerns the target HLA-A*02:03. The description is as above. The note with it: source organism: Dengue virus 1 Brazil/97-11/1997.
Test [22] deals with HLA-A*03:01. Put plainly: IEDB peptide-MHC binding, purified MHC/competitive/fluorescence; filed as Kd, often an IC50 or EC50 that approximates it; ≥ and ≤ were set here for values at or beyond the usual limits of such assays.
In test [23] the target is HLA-B*48:01. Put plainly: IEDB peptide-MHC binding, purified MHC/direct/fluorescence; filed as Kd, often an IC50 or EC50 that approximates it; ≥ and ≤ were set here for values at or beyond the usual limits of such assays. The note with it: source organism: Yellow fever virus.
Test [24] concerns the target HLA-B*15:09. Described as above. The note with it: source organism: Yellow fever virus.
Test [25] addresses HLA-B*46:01. The test is described as above. The note with it: source organism: Yellow fever virus.
For test [26], the target named is HLA-B*57:01. The description is as above. The note with it: source organism: Yellow fever virus.
Test [27] has as its target HLA-B*18:01. The test is described as above. The note with it: source organism: Yellow fever virus.
For test [28], the target named is HLA-A*24:03. The test is described as above.
The target of test [29] is HLA-B*15:01. Put plainly: IEDB peptide-MHC binding, purified MHC/competitive/fluorescence; filed as Kd, often an IC50 or EC50 that approximates it; ≥ and ≤ were set here for values at or beyond the usual limits of such assays. The note with it: source organism: Escherichia coli O157:H7 str. EDL933.
The target in test [30] is HLA-A*33:01. Put plainly: IEDB peptide-MHC binding, purified MHC/competitive/radioactivity; filed as Kd, often an IC50 or EC50 that approximates it; ≥ and ≤ were set here for values at or beyond the usual limits of such assays. The note with it: source organism: Lassa virus Josiah.
Test [31] deals with HLA-A*68:01. The test is described as above. The note with it: source organism: Lassa virus Josiah.
Setting [32] is: source organism: Giardia lamblia ATCC 50803.
Setting [33] is: source organism: Dengue virus 1 Singapore/S275/1990.
Where [34] appears, read: source organism: Bacillus anthracis str. A2012.
Setting [35] is: source organism: Yellow fever virus.
[36] abbreviates: source organism: Vibrio parahaemolyticus.
Setting [37] is: source organism: Haemophilus influenzae.
Setting [38] is: source organism: Dengue virus 3 China/80-2/1980.
The mark [39] stands for this setting: source organism: Shigella sonnei Ss046.
The mark [40] stands for this setting: source organism: Corynebacterium glutamicum.
Where [41] appears, read: source organism: Mammarenavirus lassaense.

Where only a bound is given, the exact number is not on record here.

As for KLRMVTGLR, the results for the dissociation constant Kd in test [1] (source organism: Influenza A virus (A/Bangkok/10/1983(H1N1))) and in test [2] (source organism: Influenza A virus (A/Liaoning/25/2000(H1N1))) were 45.1 nM and 366 nM, respectively.
ARADGILRF: the Kd (commonly the free concentration of one partner at which half of the binding sites on the other are occupied at equilibrium, for simple one-to-one binding) in [3] (setting [32]) is 4030 nM; in [4] (setting [32]), ≥ 20000 nM; in test [5] (setting [32]), ≥ 20000 nM; in test [6] (setting [32]), ≥ 20000 nM; in [7] (setting [32]), ≥ 20000 nM; in test [8] (setting [32]), ≥ 20000 nM. The equilibrium dissociation constant (Kd) in [9] (setting [32]) is 3170 nM; in [10] (setting [32]), 201 nM; in test [11] (setting [32]) it was ≥ 20000 nM; in [12] (setting [32]), ≥ 20000 nM; in test [13] (setting [32]) it was ≥ 20000 nM; in test [14], 2560 nM. Also, the dissociation constant (Kd) in test [15] (setting [32]), in test [16] (setting [32]), in test [2] (setting [32]) and in test [17] (setting [32]) was ≥ 20000 nM throughout.
KILNPYMPSV: the dissociation constant Kd came out at 5.14 nM in test [18], 4.81 nM in test [19] (setting [33]), 7.71 nM in test [20] (setting [33]) and 48.5 nM in test [21].
For the sequence LLLSFTSFR, the dissociation constant Kd was determined as 2.6 nM in test [1] (setting [34]) and 22.9 nM in [22] (setting [34]).
Turning to FHKRDMRLL, the dissociation constant (Kd) is ≥ 20000 nM in test [4] (setting [35]); ≥ 20000 nM in test [23]; ≥ 20000 nM in [5] (setting [35]); ≥ 20000 nM in [7] (setting [35]); 3000 nM in test [24]; ≥ 20000 nM in [8] (setting [35]). The Kd in test [9] (setting [35]), in test [25], in test [26], in test [10] (setting [35]), in test [27] and in test [12] (setting [35]) was ≥ 20000 nM each time. Further, the Kd in test [13] (setting [35]), in test [15] (setting [35]), in [16] (setting [35]), in test [2] (setting [35]) and in test [17] (setting [35]) was ≥ 20000 nM in each case.
As for AFDWPELEF, the Kd in test [3] (source organism: Vibrio vulnificus) is 77.2 nM; in test [4] (setting [36]) it was ≥ 20000 nM; in [6] (setting [36]), ≥ 20000 nM; in [7] (setting [36]) it was ≥ 20000 nM; in test [8] (setting [36]), ≥ 20000 nM; in test [10] (setting [36]) it was ≥ 20000 nM. Moreover, the dissociation constant Kd in test [11] (setting [36]), in test [12] (setting [36]), in test [13] (setting [36]), in test [16] (setting [36]), in [2] (setting [36]) and in [17] (setting [36]) was ≥ 20000 nM each time.
Take YATVAGHEG: the dissociation constant (Kd) in [3] (setting [37]) was 290 nM; in test [4] (setting [37]), ≥ 20000 nM; in test [5] (setting [37]), ≥ 20000 nM; in test [6] (setting [37]), ≥ 20000 nM; in [8] (setting [37]), ≥ 20000 nM; in [9] (setting [37]) it was ≥ 20000 nM. Also, the dissociation constant (Kd) in test [10] (setting [37]) was ≥ 20000 nM; in test [11] (setting [37]), ≥ 20000 nM; in test [12] (setting [37]), ≥ 20000 nM; in test [13] (setting [37]), 666 nM; in test [15] (setting [37]) it was 10500 nM; in test [16] (setting [37]), ≥ 20000 nM. Besides, the dissociation constant Kd in test [2] (setting [37]) is ≥ 20000 nM; in test [28] (setting [37]), 893 nM.
Regarding ALFSGVSWIM, the dissociation constant Kd in test [19] (setting [38]) stood at 6.61 nM; in [20] (setting [38]) it was 202 nM.
In the case of MQLSRLTLR, the equilibrium dissociation constant (Kd) in test [1] (setting [39]) was 6.1 nM; in test [22] (setting [39]), 3500 nM.
With AVFEIFFRK, the dissociation constant Kd was 61.7 nM in [1] (source organism: Mycobacterium tuberculosis variant bovis BCG str. Pasteur 1173P2) and 12.6 nM in test [12] (source organism: Mycobacterium tuberculosis).
For EIKFNDITF, the Kd in test [3] (setting [37]) was 50.9 nM; in test [4] (setting [37]), ≥ 20000 nM; in test [5] (setting [37]) it was ≥ 20000 nM; in test [6] (setting [37]), 2640 nM; in test [7] (setting [37]) it was 1060 nM; in test [8] (setting [37]), ≥ 20000 nM. In addition, the Kd in [9] (setting [37]) is ≥ 20000 nM; in test [10] (setting [37]) it was ≥ 20000 nM; in test [11] (setting [37]), 568 nM; in test [12] (setting [37]), ≥ 20000 nM; in [13] (setting [37]), ≥ 20000 nM; in test [15] (setting [37]), ≥ 20000 nM. In addition, the dissociation constant (Kd) in test [16] (setting [37]) and in test [2] (setting [37]) was ≥ 20000 nM each time.
For FAAAAARTL, the Kd in test [3] (setting [40]) is 5.17 nM; in test [5] (setting [40]), 2380 nM; in test [6] (setting [40]) it was 2340 nM; in [7] (setting [40]), 122 nM; in [8] (setting [40]), ≥ 20000 nM; in test [9] (setting [40]), 2570 nM. Also, the Kd in test [10] (setting [40]) was ≥ 20000 nM; in test [11] (setting [40]), ≥ 20000 nM; in [12] (setting [40]) it was ≥ 20000 nM; in test [13] (setting [40]), ≥ 20000 nM; in test [15] (setting [40]), 296 nM; in [16] (setting [40]), ≥ 20000 nM. Also, the Kd in test [2] (setting [40]) and in test [28] (setting [40]) was ≥ 20000 nM in each case.
Consider VLIGRRWFR, for which the Kd is 1.7 nM in test [1] (source organism: Escherichia coli O157:H7 str. EDL933) and ≥ 20000 nM in [29].
As to RTRDIYISR, the Kd in [1] (source organism: Lassa virus GA391) was 4.75 nM; in [12] (setting [41]), ≥ 20000 nM; in test [2] (setting [41]), 98.5 nM; in test [30], 22.3 nM; in [31] it was 825 nM.
In the case of ILNPYMPSV, the equilibrium dissociation constant (Kd) came out at 4.98 nM in test [18], 4.26 nM in [19] (setting [33]), 3.58 nM in test [20] (setting [33]) and 1.98 nM in test [21].
